Experimental data taken from patent publication US9273140B2, “Antibody for detecting DNA damage in cells utilizing cell membrane surface antigen Ly6D” (FUJITA HEALTH UNIVERSITY, priority 2012, dated 2016).

What was measured:
[1] = test system: LY6D expression on the surfaces of MCF10A cells; experiment: LY6D expression in MCF10A cells incubated with DNA-damaging stressors, by FCM; format: cell-based; settings: contact with DNA-damaging stressor (MMC 300 nM; hydroxyurea 2 mM), FIG. 4
Procedure: MCF10A cells were incubated with DNA-damaging stressor (MMC: 300 nM), carboplatin, hydroxyurea (2 mM), or aphidicolin and relative LY6D expression was determined by FCM.
After the growth to confluence, the cells were irradiated at 10Gy (3 mA/50 kV) in cabinet-type X-ray apparatus (SOFRON, soft X-ray inversion system). At a desired timing after irradiation, the cells were harvested.
The FCM analysis was carried out according to the method reported previously (Kurosawa et al., 2009, Immunol. Meth. 351: 1-12). Reactivity of the obtained anti-Ly6D antibodies was examined using the Ly6D expression cell line, namely A431™ (cell line human squamous carcinoma) (CML ATCC CCL-243). The A431 cells were recovered by centrifugation. The recovered cells were washed once with PBS and then suspended in FACS Buffer (PBS containing 1% BSA, 2 mM EDTA, and 0.1% NaN3) to result in 1×10^6 cells/mL. The cell suspension (100 μL) was dispensed on a 96-well V-bottomed plate (Costar 3897). The Ly6D antibodies were adjusted to a concentration of 0.02 to 2 μg/mL using FACS Buffer. The prepared antibody solution (100 μL) was added to the cells, followed by incubation at 4° C. for 1 hour. The cells were washed twice with FACS buffer. Then, 100 μL of ALEXAFLUOR-anti-human IgG™ (fluorescent antibody) (Invitrogen) diluted 750-fold with FACS Buffer was added to the cells, followed by another incubation at 4° C. for 1 hour. The cells were washed with FACS Buffer twice by centrifugation and set in HTS of FACS Calibur (BD) for measurement of FL1 fluorescence intensity of each well.
It is well known that X-ray irradiation causes damage to DNA, which results in DNA double-strand breaks. A variety of chemical reagents also cause DNA damage stress in cells. Therefore, the influence of camptothecin (CPT) on the LY6D expression in MCF10A cells was examined. […] Therefore, the induction of LY6D expression on the surfaces of MCF10A cells was confirmed to be a common phenomenon due to DNA damage stress.

LY6D expression = settings: Rubinfeld et al., 2006; cited from earlier work
MCF10A cells = experiment: Selection of monoclonal antibodies by cell ELISA, FCM and confocal laser microscopy on X-ray-irradiated and non-irradiated cells; format: binding
Procedure: X-ray-irradiated MCF10A cells (black bars) and non-irradiated MCF10A cells (gray bars) were subjected to ELISA using six monoclonal antibodies (A: cell ELISA). X-ray-irradiated cells (pink) and non-irradiated cells (green) were incubated with six monoclonal antibodies and subjected to FCM, and non-irradiated cells incubated with PBS were used as a negative control (purple) (B: FCM). X-ray-irradiated cells and non-irradiated cells were stained with the E33-139 monoclonal antibody (green) and DAPI (blue), respectively, and examined using a confocal laser microscope (C: immunofluorescence confocal laser microscopy).
X-ray-irradiated cells and non-irradiated cells were prepared, and antibodies specific to the irradiated cells were screened for by cell ELISA. That is, reactivity of antibody to both cells was examined by ELISA. A blocking solution (5% skim milk/0.05% NaN3/PBS) was added at 200 μL/well to both cells, followed by blocking at 37° C. for 2 hours. The blocking solution was removed and the cells were washed with PBS. The supernatant of the above antibody expression culture was added at 100 μL/well, followed by reaction at 37° C. for 1 hour. The resultant was washed five times with PBS. Rabbit anti-cp3 (1 μg/mL) diluted with PBS/0.05% Tween 20 was added at 100 μL/well, followed by reaction at 37° C. for 1 hour. The resultant was washed five times with PBS. Anti-Rabbit IgG (H+L)-HRP diluted 2000-fold with PBS/0.05% Tween 20 was further added at 100 μL/well, followed by reaction at 37° C. for 1 hour. The resultant was washed five times with PBS. […] Then, the absorbance at 492 nm was measured by SPECTRAmax340PC (Molecular Devices). Antibodies showing obvious positive reactivity specific to only the irradiated cells were selected and DNA sequences of the phages were analyzed. […]
The FCM analysis was carried out according to the method reported previously (Kurosawa et al., 2009, Immunol. Meth. 351: 1-12). […] The cells were washed with FACS Buffer twice by centrifugation and set in HTS of FACS Calibur (BD) for measurement of FL1 fluorescence intensity of each well. […]

LY6D = target: T1, LY6D (Homo sapiens, UniProt Q14210); experiment: Immunoprecipitation, western blot and mass spectrometry to identify the antigen recognized by the antibody; format: binding; settings: for 14 kDa band in western blot of immunoprecipitate: FIG. 2A
T1 construct: LY6D was identified by the precipitate derived from the X-ray-irradiated cells; endogenous in cells; host or cells: MCF10A cells (X-ray-irradiated and non-irradiated); FaDu cells
T1 sequence (Q14210 21-98 limits assumed): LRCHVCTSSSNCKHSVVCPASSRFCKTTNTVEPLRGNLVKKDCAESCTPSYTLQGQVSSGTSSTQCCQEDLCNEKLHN
Procedure: After biotinylation, the membrane proteins of the X-ray-irradiated MCF10A cells (right) and non-irradiated MCF10A cells (left) were solubilized and subjected to immunoprecipitation using the E33-139 monoclonal antibody, the product was separated by SDS-PAGE, and western blot was performed with HRP-conjugated streptavidin (A: western blot). MCF10A cells treated as described above were digested with PI-PLC, the resultant was centrifuged, and cell pellets (P) and the supernatant (S) subjected to PI-PLC treatment were separately immunoprecipitated (B: western blot). FaDu cells were treated with LY6D siRNA or control siRNA and analyzed by FCM using the E33-139 monoclonal antibody (black line: control siRNA and the E33-139 monoclonal antibody; dashed line: LY6D siRNA and the E33-139 monoclonal antibody; gray: control siRNA without the E33-139 monoclonal antibody (C: FCM). The experiment shown in FIG. 2B was carried out using FaDu cells (D: western blot). Solubilized FaDu cells were subjected to IP using the E33-139 monoclonal antibody and the product was separated by SDS-PAGE (left: western blot using anti-hLY6D Ab (polyclonal Ab, commercial product); right: silver stained gel) (E: western blot).
Conditions of immunoprecipitation were set as previously reported (Kurosawa et al., 2009, J. Immunol. Meth. 351: 1-12). […] The concentrate was analyzed by LC/MS.
Immunoprecipitation (IP) was performed to identify an antigen recognized by the E33-139 antibody. […] They were determined to be detected in precipitates in a nonspecific manner because they are abundant in the cytoplasm. […] Therefore, LY6D was determined to be a promising candidate as an antigen recognized by E33-139.
It has been reported that LY6D is abundantly expressed in a large amount in squamous cell carcinoma of head and neck (Quak et al., 1990, Am. J. Pathol. 136: 191-197). […] Before digestion with PI-PLC, a 14-kDa band was detected by the western blot method. […] The resulting blots were detected using a commercially available anti-human LY6D antibody. […]

With `C[C@@]1(CO)[C@H](O)CC[C@@]2(C)[C@H]1CC[C@H]1C[C@@H]3C[C@@]12CC[C@]3(O)CO` [aphidicolin] the “LY6D expression on the surfaces of MCF10A cells” value (“LY6D expression on the surfaces” for short) [1] was “induced”.

In the case of `N.N.O=C([O-])C1(C(=O)[O-])CCC1.[Pt+2]` [carboplatin], the “LY6D expression on the surfaces” value [1] is reported as “induced”.

With `NC(=O)NO` [hydroxyurea] the “LY6D expression on the surfaces” value [1] was “induced”.

For `CCc1c2c(nc3ccc(OC(=O)N4CCC(N5CCCCC5)CC4)cc13)-c1cc3c(c(=O)n1C2)COC(=O)[C@]3(O)CC` [irinotecan], the “LY6D expression after chemotherapy treatment” value (LY6D expression) is listed as “significantly enhanced”.

With `CO[C@@]12[C@H](COC(N)=O)C3=C(C(=O)C(C)=C(N)C3=O)N1C[C@@H]1N[C@@H]12` [mitomycin C] the “LY6D expression on the surfaces” value [1] was “induced”.

B1: E33-139: human phage antibody (scFv) against LY6D; sequence SEQ ID NOS: 1 and 2, CDRs SEQ ID NOS: 3 to 8 (protein)
scFv: MAEVQLVESGGGLVQPGRSLRLSCAASGFTFDDYAMHWVRQAPGKGLEWVSGISWNSGSIGYADSVKGRFTISRDNAKNSLYLQMNSLRAEDTALYYCAKTGILDAFDIWGQGTTVTVSRGGGGSGGGGSGGGGSMAQSVLTQPPSVSGAPRQTVTISCSGSSSNIGQNSVTWYQRLPGEAPKLLIYYDDLLHSGVSDRFSGSKSGTSASLAISGLQSEDEAEYYCASWDDSLKGPVFGGGTKLTVLGQPKAAPSVTLFPPSSEELQANKATLVCLISDFYPGAVTVAWKADSSPVKAGVETTTPSKQSNNKYAASSYLSLTPEQWKSHKSYSCQVTHEGSTVEKTVAPTECSAR
modifications: human
With B1 the “reactivity to MCF10A cells after X-ray irradiation” value (MCF10A cells; X-ray-irradiated MCF10A cells (10Gy)) was “increased reactivity”, the “binding to molecules on the surfaces of X-ray-irradiated cells, confocal laser microscope analysis” value (MCF10A cells; X-ray-irradiated MCF10A cells, FIG. 1C) was “consistently and strongly binds” and the “reactivity to MCF10A cells before X-ray irradiation” value (MCF10A cells; non-irradiated MCF10A cells) was “no reactivity”. For the same molecule, the “antigen recognized by the antibody” value (LY6D; IP, MS, PI-PLC, siRNA and anti-human LY6D western blot) was “antigen protein 139 is LY6D”, the “14 kDa band in western blot of immunoprecipitate” value (LY6D; samples from X-ray-irradiated MCF10A cells) was “a prominent band was observed” and the “14 kDa band in western blot of immunoprecipitate” value (LY6D; samples from non-irradiated MCF10A cells) was “slightly observed”.
